Test results as given in the RNAGym collection of RNA variant scans (doi:10.1073/pnas.2313332121).

B1: TPR t1 (parent)
chain: GACCAAUCUGCCCUCAGAGCUCGAGAACAUCUUCGGAUGCAGAGGAGGCAGGCUUCGGUGGCGCGAUAGCGCCAACGUCCUCAACCUCCAAUGCAUCCCACCACAUGAUGAUGCCUGAAGAGCCUUGGUUUUUUG

Variants of: B1
Test: polymerase ribozyme fitness, log enrichment relative to wild type (log ratio); higher = more active; in vitro selection for triplet polymerase activity
How it was run: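 Only genotypes with ≥10 input reads and ≥1 read per output were kept after Illumina sequencing of input and output libraries. These libraries were PCR-built, transcribed mutants of each subunit of a heterodimeric triplet polymerase ribozyme, each put through one triplicate in vitro selection round with frozen incubation at −7 °C, gel excision of extended constructs, streptavidin-bead capture and RT-PCR. Fitness is a logarithmic ratio of genotype enrichment to wild-type enrichment, from inverse-variance-weighted replicate averages, with the logarithm in base 2.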

| Variant | polymerase ribozyme fitness (log ratio) |
| --- | --- |
| U30A C73A | -5.19 |
| U30A C104U A121C | -4.08 |
| U30A G48C C124A | -5.2 |
| U30A G48C G57A C124G | -4.73 |
| U30A G110U | -4.94 |
| U30A U112C | -2.73 |
| U30C A41G | -3.33 |
| U30C A50C | -2.91 |
| U30C C40U C53G C56G C62U C76A | -5.08 |
| U30C C40U G120C | -2.45 |
| U30C C56U | -2.08 |
| U30C C62U U78A U106C A121U | -3.04 |
| U30C C62U U78C | -3.36 |
| U30C C70U | -2.92 |
| U30C G44U A50G C88U | -2.96 |
| U30C G45U | -4.52 |
| U30C G52C | -3.38 |
| U30C G58C | -2.83 |
| U30C G61A C79G | -4.69 |
| U30C G61C C72U A95U | -4 |
| U30C G69A | -4.88 |
| U30G A43C C101A U106C C115U U132A | -7.22 |
| U30G A95C U96C A105U A111C G120C | -6.71 |
| U30G G48A C49U C62U C85A A121G | -6.22 |

| Variant | polymerase ribozyme fitness (log ratio) |
| --- | --- |
| U30G U54A U112C | -5.05 |
| C31A A37G C80G C86U U92C A105U A111U | -7.03 |
| C31A A37U G60A A83C | -7.59 |
| C31A A43G U59G C98G A100G A111G | -6.13 |
| C31A A121U | -3.46 |
| C31A C56A C98A | -5.09 |
| C31A C72U C123A U125G U129A U133G | -6.38 |
| C31A C73G | -5.21 |
| C31A G44U G69A A100C U109G G135U | -6.04 |
| C31A G45U C115G | -6.15 |
| C31A G57A C73U | -6.14 |
| C31A G61A C88U | -5.76 |
| C31A G69U | -2.98 |
| C31G C34U G69U U78C C86U C101A G113U | -7.18 |
| C31G C53A G71U G107C | -1.67 |
| C31G C56G A68U U81A C99G G110C | -7.68 |
| C31G C62U C114G G127U | -6.54 |
| C31G C70U C82G G117C | -7.1 |
| C31G C72A | -6.86 |
| C31G C94G G113A | -5.38 |
| C31G C123U | -7.18 |
| C31G G36U G44A A74U A108U U112G | -7.74 |
| C31G G39U C72A U106A G120U | -6.88 |
| C31G G69U A111C U112A G117A | -6.69 |

| Variant | polymerase ribozyme fitness (log ratio) |
| --- | --- |
| C31G U33A G48U C49U C72G A108U G120U | -8.14 |
| C31G U109G C114G | -6.93 |
| C31G U112A | -5.33 |
| C31U A37G C115A | -4.73 |
| C31U A37U | -4.07 |
| C31U A68G | -6.34 |
| C31U C49A C123U C124U | -4.12 |
| C31U C70A G113A C123G C124A | -7.42 |
| C31U C70U | -4.33 |
| C31U C72A | -4.11 |
| C31U C72U | -4.57 |
| C31U C79G C124G | -5.57 |
| C31U C82U | -5.12 |
| C31U C85G | -5.19 |
| C31U C86A | -5.09 |
| C31U C88G | -6.51 |
| C31U C89U U96A U106G U112A U130C | -4.19 |
| C31U C94A C114U | -5.92 |
| C31U G36A G61A U87A U106A | -2.2 |
| C31U G36U C73U C82A C86G G113U U133A | -6.04 |
| C31U G36U G60C C73U C123U | -4.81 |
| C31U G36U G60C C123U | -5.45 |
| C31U G39A G69U G120U | -3.44 |
| C31U G44C G69U C115U U130A | -4.82 |

| Variant | polymerase ribozyme fitness (log ratio) |
| --- | --- |
| C31U G60U | -4.38 |
| C31U G61U A91C | -5.51 |
| C31U G63A | -5.33 |
| C31U G69U C98U A119G | -3.7 |
| C31U G71U C124G | -3.59 |
| C31U G71U G120U | -4.2 |
| C31U G113A | -3.94 |
| C31U G120C | -2.93 |
| C31U G127C | -3.6 |
| C31U G135U | -4.94 |
| C31U U32G G35U G61U A91C A121U | -7 |
| C31U U78C | -5.28 |
| C31U U81A C88G A95U U112A | -6.66 |
| C31U U96G | -5.37 |
| C31U U112A G113A | -4.76 |
| U32A A46C C64U U78G | -4.98 |
| U32A A46U U54A G57C G58C C70U A121G | -6.21 |
| U32A A74C C114G | -4.4 |
| U32A C40U U106A | -6.43 |
| U32A C70U C115G | -5.23 |
| U32A C88G U125A | -5.98 |
| U32A G48A C62U C97U A100U | -7.37 |
| U32A G61U | -2.74 |
| U32A U33C G77C C102G G107A A121G | -7.93 |

| Variant | polymerase ribozyme fitness (log ratio) |
| --- | --- |
| U32C A41U C124G G128A | -1.01 |
| U32C A41U G45C C115G | -5.44 |
| U32C A74G G128C | -2.08 |
| U32C A83G U87A U106A | -2.71 |
| U32C A119G | 0.645 |
| U32C C40A | -0.464 |
| U32C C40U C124A | 1.21 |
| U32C C56U | 0.1 |
| U32C C62U G77C A100C U106G | -3.33 |
| U32C C64U G93A C114G U134G | -2.93 |
| U32C C76U A90U | -2.2 |
| U32C C85G | -2.56 |
| U32C G35C C53A U78A | -4.25 |
| U32C G39A G42A G52A C70U C88G | -3.93 |
| U32C G42A G69U | -0.00577 |
| U32C G48A C102A C123U | -2.5 |
| U32C G48U C56A G71U U112G | -4.24 |
| U32C G60C A75C C79G | -1.89 |
| U32C G60C U106A G113A C124U | -3.04 |
| U32C G63U G113U | -4.99 |
| U32C G69C | -2.01 |
| U32C G117U | -2.41 |
| U32C U87A | -0.0352 |
| U32G A37G A74G A111U U133C | -5.3 |

| Variant | polymerase ribozyme fitness (log ratio) |
| --- | --- |
| U32G A119U | -6.21 |
| U32G C34G C64U C85A G110U | -6.37 |
| U32G C49A G63C G117A | -6.8 |
| U32G C56U U109A C124U | -6.14 |
| U32G C62A C102A A111G | -6.35 |
| U32G C70U | -7.16 |
| U33A A46U C97A | -6.45 |
| U33A A50U G93C A95G C101G | -7.02 |
| U33A C53A C62U | -5.53 |
| U33A C56A | -4.57 |
| U33A C62G C73A U78G | -5.54 |
| U33A C64A G69C | -5.43 |
| U33A C72G | -5.17 |
| U33A C72G A74C G127C | -7.04 |
| U33A C88U | -3.66 |
| U33A C104U U112A | -3.5 |
| U33A G36C C72U | -4.02 |
| U33A G47A A121U | -3.55 |
| U33A G51A C72U U112A | -6.67 |
| U33A G52U C115A | -4.73 |
| U33A G52U U112A | -6.07 |
| U33A G57U C124A U126A | -3.51 |
| U33A G58A | -5.07 |
| U33A G120U | -5.15 |

| Variant | polymerase ribozyme fitness (log ratio) |
| --- | --- |
| U33A U87A U133G | -4.32 |
| U33C A37C | -6.92 |
| U33C A37C G42U G69U A111C C115A G127C U133G | -5.26 |
| U33C A46C | -6.49 |
| U33C A90C | -6.14 |
| U33C C62U | -5.05 |
| U33C C62U C99U C115U | -6.64 |
| U33C C70G | -6.4 |
| U33C C99G U109A | -7.26 |
| U33C C99U C123A | -7.51 |
| U33C G52A G58C G69A C104U U109A A111G U112A | -6.93 |
| U33C G60C | -5.53 |
| U33C G60U | -3.44 |
| U33C G77C | -5.05 |
| U33G A50G A121C | -4.43 |
| U33G C34G A103U | -6.38 |
| U33G C34G C72G G110A | -6.68 |
| U33G C70U G120U | -6.7 |
| U33G C94A G113C G117A | -6.01 |
| U33G C124G | -4.16 |
| U33G G39A C72G A84G A111U | -6.45 |
| U33G G39U A50U C70U A84U A91C C114A | -7.12 |
| U33G G52C C64G U78A C98A U112G U116G | -7.08 |
